Reference: article PMC11257509 (bioRxiv, 2024)

Target: the molecule itself
Experiment: SEC

B1: 10His-pG-Tn5(E54K, L372P) (enzyme, UniProt Q46731 1-476, looked up)
chain: MITSALHRAADWAKSVFSSAALGDPRRTARLVNVAAQLAKYSGKSITISSEGSKAMQEGAYRFIRNPNVSAEAIRKAGAMQTVKLAQEFPELLAIEDTTSLSYRHQVAEELGKLGSIQDKSRGWWVHSVLLLEATTFRTVGLLHQEWWMRPDDPADADEKESGKWLAAAATSRLRMGSMMSNVIAVCDREADIHAYLQDKLAHNERFVVRSKHPRKDVESGLYLYDHLKNQPELGGYQISIPQKGVVDKRGKRKNRPARKASLSLRSGRITLKQGNITLNAVLAEEINPPKGETPLKWLLLTSEPVESLAQALRVIDIYTHRWRIEEFHKAWKTGAGAERQRMEEPDNLERMVSILSFVAVRLLQLRESFTPPQALRAQGLLKEAEHVESQSAETVLTPDECQLLGYLDKGKRKRKEKAGSLQWAYMAIARLGGFMDSKRTGIASWGALWEGWEALQSKLDGFLAAKDLMAQGIKI
binding result: binds
